Test results published in paper PMC5424545 (Cell reports, 2017).

B1: Snf5 (natural protein, S. cerevisiae (endogenous in yeast), UniProt P18480 1-905, looked up)
chain: MNNQPQGTNSVPNSIGNIFSNIGTPSFNMAQIPQQLYQSLTPQQLQMIQQRHQQLLRSRLQQQQQQQQQTSPPPQTHQSPPPPPQQSQPIANQSATSTPPPPPAPHNLHPQIGQVPLAPAPINLPPQIAQLPLATQQQVLNKLRQQAIAKNNPQVVNAITVAQQQVQRQIEQQKGQQTAQTQLEQQRQLLVQQQQQQQLRNQIQRQQQQQFRHHVQIQQQQQKQQQQQQQHQQQQQQQQQQQQQQQQQQQQQQQQQQQQQQQQQQQQQGQIPQSQQVPQVRSMSGQPPTNVQPTIGQLPQLPKLNLPKYQTIQYDPPETKLPYPTYWSDKKADTDTLLYEQIIQRDKINKYSLIRETNGYDPFSIYGFSNKEYISRLWHTLKYYQDLKNTRMKSITSTSQKIPSASIWGNGYSGYGNGITNTTTRVIPQVEVGNRKHYLEDKLKVYKQAMNETSEQLVPIRLEFDQDRDRFFLRDTLLWNKNDKLIKIEDFVDDMLRDYRFEDATREQHIDTICQSIQEQIQEFQGNPYIELNQDRLGGDDLRIRIKLDIVVGQNQLIDQFEWDISNSDNCPEEFAESMCQELELPGEFVTAIAHSIREQVHMYHKSLALLGYNFDGSAIEDDDIRSRMLPTITLDDVYRPAAESKIFTPNLLQISAAELERLDKDKDRDTRRKRRQGRSNRRGMLALSGTSASNTSMNGVHNTVAAGNASSLPPGEILLPDIADIPRTFRTPVPSTLMPGGVDVGPSVESYELRNTTTYKSRPDRPKPVSPPCYIIDHIPGHSLLLSIKLPGKVNTKEEFAAAPNDTSSGTNAMLPSPESLKTKLNSNIRAGVTIPSIPNPIANHTVTNSPNPTLQPVIPGGAASKSVPTPSLPIAPPVAPHDSEATLLTNSNNGSSNNNTQNT
B2: Swi1 (natural protein, S. cerevisiae (endogenous in yeast), UniProt P09547 1-1314, looked up)
chain: MDFFNLNNNNNNNNTTTTTTTTNNNNTNNNNTNNNNNPANNTNNNNSTGHSSNTNNNTNNNNTNTGASGVDDFQNFFDPKPFDQNLDSNNNNSNSNNNDNNNSNTVASSTNFTSPTAVVNNAAPANVTGGKAANFIQNQSPQFNSPYDSNNSNTNLNSLSPQAILAKNSIIDSSNLPLQAQQQLYGGNNNNNSTGIANDNVITPHFITNVQSISQNSSSSTPNTNSNSTPNANQQFLPFNNSASNNGNLTSNQLISNYAASNSMDRSSSASNEFVPNTSDNNNNSNNHNMRNNSNNKTSNNNNVTAVPAATPANTNNSTSNANTVFSERAAMFAALQQKQQQRFQALQQQQQQQQNQQQQNQQPQQQQQQQQNPKFLQSQRQQQQRSILQSLNPALQEKISTELNNKQYELFMKSLIENCKKRNMPLQSIPEIGNRKINLFYLYMLVQKFGGADQVTRTQQWSMVAQRLQISDYQQLESIYFRILLPYERHMISQEGIKETQAKRIFLQQFLQELLKKVQQQQQAAALANANNNINSASSAPTPAAPGASVPATAAPGTEAGIVPVSANTPKSLNSNININVNNNNIGQQQVKKPRKQRVKKKTKKELELERKEREDFQKRQQKLLEDQQRQQKLLLETKLRQQYEIELKKLPKVYKRSIVRNYKPLINRLKHYNGYDINYISKIGEKIDSNKPIFLFAPELGAINLHALSMSLQSKNLGEINTALNTLLVTSADSNLKISLVKYPELLDSLAILGMNLLSNLSQNVVPYHRNTSDYYYEDAGSNQYYVTQHDKMVDKIFEKVNNNATLTPNDSNDEKVTILVDSLTGNQLPTPTPTEMEPDLDTECFISMQSTSPAVKQWDLLPEPIRFLPNQFPLKIHRTPYLTSLKKIKDEIDDPFTKINTRGAEDPKVLINDQLSTISMILRNISFSDNNSRIMSRNFYLKRFISDLLWLVLIHPENFTCNRKILNFKKDLVIVLSNISHLLEIASSIDCLLILILVISFGQPKLNPMASSSSFGSESLTFNEFQLQWGKYQTFGVDILAKLFSLEKPNLNYFKSILLNKNTGNNLYDRNSNNNHKDKKLLRRLLNLYNDNNKNNNNRHNLLNDVVSFLFSAIPLQQVLSQSADPSLLIDQFSPVISQSLTSILVIVQKILPLSNEVFEISENNSDSNSNNNGNKDSSFNFNKNLPFVWLSSEENIGSGLLKLSEIILNINNSTSKNTLLQQQNYSKVLLPSINISCVQLIKCLVEKSICFENCLNNDPEILKKIASIPNLFPTDLEIFQLFTNPSVDIQIINQYQLLYNLKNDILTNLE

How the values were obtained:
Test in all cases: cross-linking
[1] = biological target: Snf2 with two FLAG tags at the C-terminus (S. cerevisiae (endogenous in yeast), UniProt P22082 1-1703)
Swi1 = biological target: B2
Snf5 = biological target: B1

Snf2 with two FLAG tags at the C-terminus, sequence (P22082 whole entry): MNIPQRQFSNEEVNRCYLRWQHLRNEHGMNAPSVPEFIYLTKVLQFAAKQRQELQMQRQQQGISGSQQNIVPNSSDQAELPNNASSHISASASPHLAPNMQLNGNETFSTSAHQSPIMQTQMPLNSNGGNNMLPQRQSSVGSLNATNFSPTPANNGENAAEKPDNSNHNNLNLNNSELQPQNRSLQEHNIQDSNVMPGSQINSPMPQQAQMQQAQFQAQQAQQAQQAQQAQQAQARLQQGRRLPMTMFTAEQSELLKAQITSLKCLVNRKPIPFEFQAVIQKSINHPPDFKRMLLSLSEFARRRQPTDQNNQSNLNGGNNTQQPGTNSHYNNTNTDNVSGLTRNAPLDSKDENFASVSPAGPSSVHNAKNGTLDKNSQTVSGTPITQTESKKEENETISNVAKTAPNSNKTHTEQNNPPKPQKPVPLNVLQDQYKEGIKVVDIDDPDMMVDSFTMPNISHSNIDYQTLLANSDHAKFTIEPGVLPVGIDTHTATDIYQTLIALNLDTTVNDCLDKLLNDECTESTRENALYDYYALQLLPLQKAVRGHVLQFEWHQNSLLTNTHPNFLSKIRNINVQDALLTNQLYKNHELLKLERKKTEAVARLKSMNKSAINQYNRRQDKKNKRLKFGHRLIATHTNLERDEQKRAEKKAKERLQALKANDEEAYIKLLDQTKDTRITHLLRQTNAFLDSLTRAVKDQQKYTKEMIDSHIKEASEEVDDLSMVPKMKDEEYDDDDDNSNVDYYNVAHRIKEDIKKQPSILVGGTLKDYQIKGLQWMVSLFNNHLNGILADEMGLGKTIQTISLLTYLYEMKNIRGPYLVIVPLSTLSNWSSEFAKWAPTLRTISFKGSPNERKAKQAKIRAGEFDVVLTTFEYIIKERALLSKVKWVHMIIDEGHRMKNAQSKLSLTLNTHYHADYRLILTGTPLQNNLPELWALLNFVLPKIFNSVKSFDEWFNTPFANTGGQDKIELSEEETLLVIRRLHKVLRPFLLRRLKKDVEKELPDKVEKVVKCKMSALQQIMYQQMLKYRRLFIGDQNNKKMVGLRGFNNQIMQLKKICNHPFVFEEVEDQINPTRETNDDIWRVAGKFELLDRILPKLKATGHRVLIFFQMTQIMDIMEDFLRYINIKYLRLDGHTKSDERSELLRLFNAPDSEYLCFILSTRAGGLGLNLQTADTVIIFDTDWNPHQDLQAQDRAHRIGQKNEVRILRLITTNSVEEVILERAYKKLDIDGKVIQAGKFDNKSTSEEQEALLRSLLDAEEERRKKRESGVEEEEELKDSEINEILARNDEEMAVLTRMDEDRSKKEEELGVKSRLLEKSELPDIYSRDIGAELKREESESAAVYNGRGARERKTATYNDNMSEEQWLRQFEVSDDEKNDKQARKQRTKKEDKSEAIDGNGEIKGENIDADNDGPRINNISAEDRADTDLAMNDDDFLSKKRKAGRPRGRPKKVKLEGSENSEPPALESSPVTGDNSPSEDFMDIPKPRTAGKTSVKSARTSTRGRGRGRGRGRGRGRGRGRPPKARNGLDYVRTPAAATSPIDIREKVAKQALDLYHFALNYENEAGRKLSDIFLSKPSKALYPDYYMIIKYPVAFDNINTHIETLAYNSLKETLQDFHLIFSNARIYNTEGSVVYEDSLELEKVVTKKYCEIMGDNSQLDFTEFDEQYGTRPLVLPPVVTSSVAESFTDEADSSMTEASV

binding result [1]	binding result (Swi1)	binding result (Snf5)	Binder
binds	binds		B1
binds			B2
binds		binds	Swp82 (natural protein, S. cerevisiae (endogenous in yeast), UniProt P43554 1-623, looked up) MLGEDEGNTVLEKGNNPSVKQGEVGAVFIVPKILIREHERVILKQILQILDQDELVQPPLDKFPYKKLELPKYIDELKTRDATNTSYKMIQLDAYGEKKVGSNGELFGGRHYLFNTFTFTAHMGVLLVLLQDVIKVLYQSNATHDEDEFIVQHDQILVMETSEEQTKFLAKNGVIPEESKGSFKYITARSAFVEFGASVIAGGQRIVDDYWESLAKKQNLSSHQRVFKLSTNLISKISLLRPSFQNNRISNANEISANTNNTCTISTSKFESQYPIVTEQPSAEIREAYIENFAKGEHISAIVPGQSISGTLELSAQFRVPRYHSKNSFQQALQMKAMDIPIGRHEELLAQYESQAPDGSASISLPNHIPSVNPSNKPIKRMLSSILDINVSSSKNKKSEENEMIKPMNKGQHKNNTSLNINGWKFESLPLKSAENSGKQQYYRGLPLYEKNTLLERLKQLTPNEIKELEHLHDAVFVNTGLQNVRKVRTKKWKKYWQYKAGIPIGLKRSQLDEFKNKYLKDVLAQTSVTTNFNEITNTDETITTKRVPNPNFLGNCNIKDFKPPYIYSHVNKVPQNVAGDKTAVKLDTEVKNTNANPVVATDPVAAKPDNLANFSNEVAMNN
binds		binds	Swi3 (natural protein, S. cerevisiae (endogenous in yeast), UniProt P32591 1-825, looked up) MENTLGEGSTVNASVDVDQHGNDNNSDSNANAAVAGVANTDTAGEESQQQDESLKDEATVPNTRDAESEAITVTAKQQPTMQANKLDSQETPSTEESRAQNVFGQDNEDSDNLFGETESSVSNNEANTPSIPTNPVDNENNKPAIKEDSTIQDSNGDVKNMEDVKIQKEEEPENNTVIEGVKEESQPDENTKEMDEVEEDDEDDDQPMISPDNSIFGDTKSESKQLGNTSSVANTPSEIPDAHKAEQEDIIEKTESVDKKVDSGEERNEQEREIMNDHSKSANPKKTTITRVEPETFEIPQAHEIVIPSYSKWFNLEKIHSIEVQSLPEFFTNRIPSKTPEVYMRYRNFMVNSYRLNPNEYFSVTTARRNVSGDAAALFRLHKFLTKWGLINYQVDSKLLPKNIEPPLTSQYSTRHDAPRGLFPFESYKPSVQLPDMAKLKKMMNTSDSESTLYKYLKESKRKYDEITHPPSTTDDENGDKNDNGGKMNNEVSTSTSMTGDANLLEEGETSRPLKKVKILEQIDENWSKEDLQKLLKGIQEFGADWYKVAKNVGNKSPEQCILRFLQLPIEDKFLYGDGNGKGDNDNGLGPLKYAPHLPFSKSENPVLSTIAFLVGLVNPKTVQSMTQRAIQSAESIKSQKEEISDQKPIEHIKEGSEIAISSLGYRSHIFATNEERQMNFLTNELIRLQMEKLDAKLNHLKKLEKFMELERKTLERQQENLLIQRLNFNQNSSKIVNVLSKCLNLISDSNINNSSVAEKEEIRSQIDHFKSMLSKPETLSIGKNPFNKPNIETGENHNGQSISNENDVKPISIEAPQFYRYWSA
		binds	Snf6 (natural protein, S. cerevisiae (endogenous in yeast), UniProt P18888 1-332, looked up) MGVIKKKRSHHGKASRQQYYSGVQVGGVGSMGAINNNIPSLTSFAEENNYQYGYSGSSAGMNGRSLTYAQQQLNKQRQDFERVRLRPEQLSNIIHDESDTISFRSNLLKNFISSNDAFNMLSLTTVPCDRIEKSRLFSEKTIRYLMQKQHEMKTQAAELQEKPLTPLKYTKLIAAAEDGSRSTKDMIDAVFEQDSHLRYQPDGVVVHRDDPALVGKLRGDLREAPADYWTHAYRDVLAQYHEAKERIRQKEVTAGEAQDEASLQQQQQQDLQQQQQVVTTVASQSPHATATEKEPVPAVVDDPLENMFGDYSNEPFNTNFDDEFGDLDAVFF
binds		binds	Taf14 (natural protein, S. cerevisiae (endogenous in yeast), UniProt P35189 1-244, looked up) MVATVKRTIRIKTQQHILPEVPPVENFPVRQWSIEIVLLDDEGKEIPATIFDKVIYHLHPTFANPNRTFTDPPFRIEEQGWGGFPLDISVFLLEKAGERKIPHDLNFLQESYEVEHVIQIPLNKPLLTEELAKSGSTEETTANTGTIGKRRTTTNTTAEPKAKRAKTGSASTVKGSVDLEKLAFGLTKLNEDDLVGVVQMVTDNKTPEMNVTNNVEEGEFIIDLYSLPEGLLKSLWDYVKKNTE
